The record followed here is US20150064134A1.

For the test, the target named is MAPKAP-K2(h) (human) (UniProt P49137). The experiment in a line: cell-based or functional assay.

MMI-0100 (peptide) displayed an IC50 (radiometric kinase activity assay) of 22 µM.
